{"source": "paper PMC9931023", "about": "(Journal of Food and Drug Analysis, 2021)", "binders": {"B1": {"name": "salt-induced kinase-3 (SIK3), endogenous in breast tissue (enzyme, UniProt Q9Y2K2-5 1-1321, looked up)", "chain": "MAAAAASGAGGAAGAGTGGAGPAGRLLPPPAPGSPAAPAAVSPAAGQPRPPAPASRGPMPARIGYYEIDRTIGKGNFAVVKRATHLVTKAKVAIKIIDKTQLDEENLKKIFREVQIMKMLCHPHIIRLYQVMETERMIYLVTEYASGGEIFDHLVAHGRMAEKEARRKFKQIVTAVYFCHCRNIVHRDLKAENLLLDANLNIKIADFGFSNLFTPGQLLKTWCGSPPYAAPELFEGKEYDGPKVDIWSLGVVLYVLVCGALPFDGSTLQNLRARVLSGKFRIPFFMSTECEHLIRHMLVLDPNKRLSMEQICKHKWMKLGDADPNFDRLIAECQQLKEERQVDPLNEDVLLAMEDMGLDKEQTLQSLRSDAYDHYSAIYSLLCDRHKRHKTLRLGALPSMPRALAFQAPVNIQAEQAGTAMNISVPQVQLINPENQIVEPDGTLNLDSDEGEEPSPEALVRYLSMRRHTVGVADPRTEVMEDLQKLLPGFPGVNPQAPFLQVAPNVNFMHNLLPMQNLQPTGQLEYKEQSLLQPPTLQLLNGMGPLGRRASDGGANIQLHAQQLLKRPRGPSPLVTMTPAVPAVTPVDEESSDGEPDQEAVQSSTYKDSNTLHLPTERFSPVRRFSDGAASIQAFKAHLEKMGNNSSIKQLQQECEQLQKMYGGQIDERTLEKTQQQHMLYQQEQHHQILQQQIQDSICPPQPSPPLQAACENQPALLTHQLQRLRIQPSSPPPNHPNNHLFRQPSNSPPPMSSAMIQPHGAASSSQFQGLPSRSAIFQQQPENCSSPPNVALTCLGMQQPAQSQQVTIQVQEPVDMLSNMPGTAAGSSGRGISISPSAGQMQMQHRTNLMATLSYGHRPLSKQLSADSAEAHSLNVNRFSPANYDQAHLHPHLFSDQSRGSPSSYSPSTGVGFSPTQALKVPPLDQFPTFPPSAHQQPPHYTTSALQQALLSPTPPDYTRHQQVPHILQGLLSPRHSLTGHSDIRLPPTEFAQLIKRQQQQRQQQQQQQQQQEYQELFRHMNQGDAGSLAPSLGGQSMTERQALSYQNADSYHHHTSPQHLLQIRAQECVSQASSPTPPHGYAHQPALMHSESMEEDCSCEGAKDGFQDSKSSSTLTKGCHDSPLLLSTGGPGDPESLLGTVSHAQELGIHPYGHQPTAAFSKNKVPSREPVIGNCMDRSSPGQAVELPDHNGLGYPARPSVHEHHRPRALQRHHTIQNSDDAYVQLDNLPGMSLVAGKALSSARMSDAVLSQSSLMGSQQFQDGENEECGASLGGHEHPDLSDGSQHLNSSCYPSTCITDILLSYKHPEVSFSMEQAGV"}}, "target": "p27 (Kip1), endogenous in breast tissue (human (endogenous in breast tissue …, UniProt P46527 1-198))", "sequence (P46527 whole entry)": "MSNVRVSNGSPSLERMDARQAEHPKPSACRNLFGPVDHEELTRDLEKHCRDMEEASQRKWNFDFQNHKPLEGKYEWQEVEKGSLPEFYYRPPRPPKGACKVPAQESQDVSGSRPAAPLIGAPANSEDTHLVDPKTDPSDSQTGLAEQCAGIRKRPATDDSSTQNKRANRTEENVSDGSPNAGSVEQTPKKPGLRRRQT", "assay": "FRET or BRET", "data": [{"binder": "B1", "values": [{"measurement": "FRET activity (fold)", "value": 25.2, "unit": "fold"}]}]}
